B1: SEQ ID NO 178 (designed binder)
chain: PLSPPTNLHLEVNPDTGVLTVSWERSTTPGITQYDIATLSYGGRSGGLEEVVHADQSSCTFDNLSPGLSYVVSVSTVTSNEYSAPISDTIIP
B2: SEQ ID NO 181 (designed binder)
chain: PLSPPTNLHLEANPDTGVLTVSWERSTTPDITYYYIGTYQGTTYEHLEEVVHADQSSCTFDNLSPGLIYLVYVSTVYWDSMSSPISDTIIP
B3: SEQ ID NO 171 (designed binder)
chain: PLSPPTNLHLEANPDTGVLTVSWERSTTPDITYYTIATADYTYSYAHLEEVVHADQSSCTFDNLSPGLNYEVGVGTVSVYSYIGPISDTIIP
B4: SEQ ID NO 182 (designed binder)
chain: PLSPPANLRLEANPDTGVLTVSWERSTTPDITRYVIATGYGGSWYHLEEVVHADQSRCTFDNLSPGLAYYVDVYTVTPGEKHSPISDTIIP
B5: SEQ ID NO 191 (designed binder)
chain: PLSPPTNLHLEANPDTGVLTVSWERSTTPDITRYYIRTSYVRHGRLEEVVHADQSSCTFDNLSPGLYYNVSVSTVGYYYMLPISDTIIP
B6: SEQ ID NO 166 (designed binder)
chain: PLSPPTNLHLEANPDTGVLTVSWERSTTPDITWYWIGTWYSGYMVGLEEVVHADQSSCTFDNLSPGLTYWVLVGTVVRSPSRRPISDTIIP
B7: SEQ ID NO 175 (designed binder)
chain: PLSPPTNLHLEANPDTGVLTVSWERSTTPDITWYWINTSLANVRMSLEEVVHADQSGCTFDNLSPGLYYDVQVRTVSAAEGYPISDTIIP
B8: SEQ ID NO 172 (designed binder)
chain: PLSPPTNLHLEANPDTGVLTVSWERSTTPDITYYSIDTWTFGQWGLEEVVHADQSSCTFDNLSPGLYYYVEVVTVYEWAYSYPISDTIIP
B9: SEQ ID NO 196 (designed binder)
chain: PLSPPTNLHLEANPDTGVLTVSWERSTTPDITYYYIHTYYWKHWQSLEEVVHADQSSCTFDNLSPGLKYGVWVSTVYRVVYYPISDTIIP
B10: SEQ ID NO 188 (designed binder)
chain: PLSPPTNLHLEANPDTGVLTVSWERSTTPDITKYYILTSGYWGGGLEEVVHADQSSCTFDNLSPGLTYLVSVWTVTHYAGYPISDTIIP
B11: SEQ ID NO 173 (designed binder)
chain: PLSPPTNLHLEANPDTGVLTVSWERSTTPDITMYAITTYEYSRAWQYLEEVVHADQSSCTFDNLSPGLTYYVEVYTVRYTWSDPISDTIIP
B12: SEQ ID NO 184 (designed binder)
chain: PLSPPTNLHLEANPDTGVLTVSWERSTTPDITSYRISTEWRWRYTGLEEVVHADQSSCTFDNLSPGLIYGVGVSTVWKHNSQAPISDTIIP
B13: SEQ ID NO 193 (designed binder)
chain: PLSPPTNLHLEANPDTGVLTVSWERSTTPDITMYGIVTIYTRYYSLEEVVHADQSSCTFDNLSPGLIYWVYVLTVYYSWYRPISDTIIP
B14: SEQ ID NO 163 (designed binder)
chain: SLSPPTNLHLEANPDTGVLTVGWERSTTPGITSYSIDTAKDDVPYLEEVVHADQSSCTFDNLSPGLNYTVVVATVGWSVDGPISDTIIP
B15: SEQ ID NO 165 (designed binder)
chain: PLSPPTNLHLEANPDTGVLTVSWERSTTPDITYYGIWTLTWLQYYSYRWGLEEAVHADQSSCTFDNLSPGLVYLVYVGTVRSPMARPISDTIIP
B16: SEQ ID NO 195 (designed binder)
chain: PLSPPTNPHLEANPDTGVLTVSWERSTTPDITTYWIGTYYSADERLEEVVHADQSSCTFDNLSPGLYYAVVVGTVGVWYRVAPISDTIIP
B17: SEQ ID NO 192 (designed binder)
chain: PLSPPTNLHLEANPDTGVLTVSRERSTTPDITTYSIYTHSGALYVLEEVVHADQSSCTFDNPSPGLNYNVSVSTVHSRWRYGPISDTIIP
B18: SEQ ID NO 161 (designed binder)
chain: PLSPPTNLHLEANPDTGVLTVSWERSTTRDITTYGIETEYDHSVGLEEVVHADQSSCTFDNLSPGLNYDVEVVTVGWGVYQRPISDTIIP
B19: SEQ ID NO 179 (designed binder)
chain: PLSPPTNLHLEANPDTGVLTVSWERSTTPDITMYDIKTIYYKAYYYGLEEVVHADQSSCTFDNLSPGLYYFVGVVTVERPRYYPISDTIIP
B20: SEQ ID NO 177 (designed binder)
chain: PLSPPTNLHLEANPDTGVLTVSWERSTTPDITMYSIYTYDYTRNYVLEEAVHADQSSCTFDNLSPGLYGYYVGVGTVTGAGWHPISDTIIP
B21: SEQ ID NO 186 (designed binder)
chain: PLSPPTNLHLEANPDTGVLTVSWERSTTPDITGYSIATYLTYSNLVGLEEVVHADQSSCTFDNLSPGLSYKVSVYTVYGYSYGPISDTIIP
B22: SEQ ID NO 187 (designed binder)
chain: PLSPPTNLHLEANPDTGVLTVSWERSTTSDITKYYIATWFGDYGYSLEEVVHADQSSCTFDNLSPGLQYGVSVATVKGGQAHYPISDTIIP
B23: SEQ ID NO 169 (designed binder)
chain: PLSPPTNLHLEANPDTGVLTVSWERSTTPDITDYYIITRSRWGYLEEVVHADQSSCTFDNLSPGLRYHVYVWTVGHYRDPISDTIIP
B24: SEQ ID NO 164 (designed binder)
chain: PLSPPTNLHLEANPDTGVLTVSWERSTTPDITYYEINTTGYYGFYPGGLEEVVHADQSSCTFDNLSPGLYYQVTVQTVVYSMWYHPISDTIIP
B25: SEQ ID NO 197 (designed binder)
chain: PLSPPTNLHLEASPDTGVLTVSWERSTTPDITTYLILTYLGYSRVLEEVVHADQSSCTFDNLSPGLWYMVYVDTVGRVPYIGPISDTIIP
B26: SEQ ID NO 183 (designed binder)
chain: PLSPPTNLHLEANPDTGVLTVSWERSTTPDITKYIISTYVDYGGYLEEVVHADQSSCTFDNLSPGLGYSVTVSTVSAGWDSPISDTIIP
B27: SEQ ID NO 170 (designed binder)
chain: PLSPPTNLHLEANPDTGVLTVSWERSTTPDITNYLIQTDYFAFIKGVLEEVVHADQSSCTFDNLSPGLYYYVGVDTVSVPSHGPISDTIIP
B28: SEQ ID NO 198 (designed binder)
chain: PLSPPTNLHLEANPDTGVLTVSWERSTTPDITVYYIYTYTYNADLILEEVVHADQSSCTFDNLSPGLIYSVYVGTVASDDGRPISDTIIP
B29: SEQ ID NO 176 (designed binder)
chain: PLSPPTNLHLEANPDTGVLTVSWERSTTPDITKYIIYTGYGASYDLEEVVHADQSSCTFDNLSPGLKYTVTVWTVSYASQVPISDTIIP
B30: SEQ ID NO 189 (designed binder)
chain: PLSPPTNLHLEANPDTGVLTVSWERSTTPDITYYSITTSFYYSELEEVVHADQSSCTFDNLSPGLKYMVSVSTVSYSVGSPISDTIIP
B31: SEQ ID NO 168 (designed binder)
chain: PLSPPTNLHLEANPDTGVLTVSWERSTTPDITTYGIETQTVEWVYYLEEVVHADQSSCTFDNLSPGLYYNVTVGTVMLDAAYPISDTIIP
B32: SEQ ID NO 180 (designed binder)
chain: PLSPPTNLHLEANPDTGVLTVSWERSTTPDITYYYIDTNGGYWSYLEEVVHADQSSCTFDNLSPGLGYPVGYVRTVYAGWLKGPISDTIIP
B33: SEQ ID NO 185 (designed binder)
chain: PLSPPTNLHLEANPDTGVLTVSWERSTTPDITMYYISTGGSSYKPDRLEEVVHADQSSCTFDNLSPGLDYMVYVRTVMYYNRSPISDTIIP
B34: SEQ ID NO 194 (designed binder)
chain: PLSPPTNLHLEANPDTGVLTVSWERSTTPDITTYVIDTGAAVNYVLEEVVHADQSSCTFDNLSPGLQYSVDVVVTVWYSWYMPISDTIIP
B35: SEQ ID NO 174 (designed binder)
chain: PLSPPTNLHLEANPDTGVLTVSWERSTTPDITDYNISTWLYTSVSVYTELEEVVHAGQSSCTFDNLSPGLAYVVYVWSTVWEHFYPSPISDTIIP
B36: SEQ ID NO 167 (designed binder)
chain: PLSPPTNLHLEANPDTGVLTVSWERSTTPDVTTYSIYTYGYWDSHYMSLEEVVHADQSRCTFDNLSPGLYYSVEVYTVYYGLYVVPISDTIIP
B37: SEQ ID NO 199 (designed binder)
chain: PLSPPTNLHLEANPDTGVLTVSWERSTTPDITAYVIYTYSESDGRVLEEVVHADQSSCTFDNLSPGLRYSVKVSTVYYSYAYPISDTIIP

These results are taken from patent US20140057807A1 (UNIVERSITY OF CHICAGO, published 2014).

In the assay the target is T1, human serum albumin (human, UniProt P02768 25-609).
T1 construct: also called HSA
T1 sequence (P02768 25-609 limits assumed): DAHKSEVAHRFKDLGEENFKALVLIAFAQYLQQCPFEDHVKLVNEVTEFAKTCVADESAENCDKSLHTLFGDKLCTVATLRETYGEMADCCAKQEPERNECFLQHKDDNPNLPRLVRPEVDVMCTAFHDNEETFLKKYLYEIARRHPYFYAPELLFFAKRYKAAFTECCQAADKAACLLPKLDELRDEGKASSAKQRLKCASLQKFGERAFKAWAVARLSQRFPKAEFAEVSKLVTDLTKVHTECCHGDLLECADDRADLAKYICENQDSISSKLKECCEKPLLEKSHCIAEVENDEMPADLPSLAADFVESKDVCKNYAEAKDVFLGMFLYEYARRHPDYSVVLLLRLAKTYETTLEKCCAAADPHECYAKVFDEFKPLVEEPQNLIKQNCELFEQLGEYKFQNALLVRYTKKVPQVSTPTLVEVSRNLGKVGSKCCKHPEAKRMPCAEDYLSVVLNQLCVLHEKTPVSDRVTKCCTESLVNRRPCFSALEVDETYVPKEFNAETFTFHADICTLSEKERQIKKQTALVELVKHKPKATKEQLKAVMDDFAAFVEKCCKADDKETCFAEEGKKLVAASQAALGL
Kind of assay: cradle library selection hit.
With B1, the binding result is given as “binds”.
For B2, the binding result is “binds”.
As to B3, the binding result is reported as “binds”.
B4: the binding result is given as “binds”.
The same measure for B5: “binds”; for B6: “binds”.
Take B7: the binding result is on record as “binds”.
Regarding B8, the binding result was “binds”.
Next, B9: “binds”.
The same measure for B10: “binds”; for B11: “binds”; for B12: “binds”.
For the molecule B13, the binding result is “binds”.
Regarding B14, the binding result is “binds”.
The same measure for B15: “binds”; for B16: “binds”; for B17: “binds”.
Consider B18, for which the binding result is “binds”.
As to B19, the binding result is given as “binds”.
In the case of B20, the binding result is on record as “binds”.
For the molecule B21, the binding result is “binds”.
On to B22, for which the binding result was “binds”.
In the case of B23, the binding result was “binds”.
Next, B24: “binds”; B25: “binds”.
In the case of B26, the binding result is on record as “binds”.
For the molecule B27, the binding result is on record as “binds”.
With B28, the binding result is “binds”.
For B29, the binding result is reported as “binds”.
For the molecule B30, the binding result was “binds”.
In the case of B31, the binding result is on record as “binds”.
For B32, the binding result is listed as “binds”.
The same measure for B33: “binds”; for B34: “binds”; for B35: “binds”.
In the case of B36, the binding result was “binds”.
As for B37, the binding result is given as “binds”.
